Laboratory results published in the RNAGym collection of RNA variant scans (doi:10.1073/pnas.2313332121).

B1: TPR t1 (parent)
chain: GACCAAUCUGCCCUCAGAGCUCGAGAACAUCUUCGGAUGCAGAGGAGGCAGGCUUCGGUGGCGCGAUAGCGCCAACGUCCUCAACCUCCAAUGCAUCCCACCACAUGAUGAUGCCUGAAGAGCCUUGGUUUUUUG

Variants of: B1
Assay: polymerase ribozyme fitness, log enrichment relative to wild type (log ratio); higher = more active; in vitro selection for triplet polymerase activity
Method in brief: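 PCR was used to build mutant libraries for each subunit of a heterodimeric triplet polymerase ribozyme, which were then transcribed. A single in vitro selection round, in triplicate, used a frozen incubation at −7 °C and recovered extended constructs by gel excision, streptavidin beads and RT-PCR. Fitness is the logarithm of genotype enrichment relative to wild-type enrichment, averaged over replicates with inverse-variance weights. The logarithm is base 2, and after Illumina sequencing only genotypes with ≥10 input reads and ≥1 read per output were kept.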

Row | Variant | polymerase ribozyme fitness (log ratio)
1 | C12G A29U C56U A118C C123G | -0.961
2 | C12A A41U G48A G77U A83G | -2.82
3 | C12A G19A G60U | -2.57
4 | C12A C64U | -0.93
5 | C11U G17A C82A | -4.52
6 | C12A C89U | -1.16
7 | C11U G113A | -1.33
8 | C11U C12U | -0.628
9 | C11U C12G | -0.553
10 | C12A C72U C98A | -6.65
11 | C11U C13G C56U G93C C114U A119G | -3.78
12 | C12G U14C G17U C22G C49G G117C U130A | -6.43
13 | C12G C73A C79A C86U | -0.241
14 | C11U C101A | -1.8
15 | C11U C101G | -2.02
16 | C12G C62U A68C U116C A121C U129A | -6.48
17 | C12A C13G G35A | -5.31
18 | C11U A29U C53U C72A C123A | -0.568
19 | C12G G69U G93U C94G U96A C97U U109A | -5.02
20 | C12G C56G C70G | -3.6
21 | C12G C85G | -1.08

Row | Variant | polymerase ribozyme fitness (log ratio)
22 | C12A A26G G57A U78A C124G | -1.04
23 | C11U G63U U78C C101A | -4.53
24 | C12A G57U C82G G113A G122A | -2.01
25 | C12G C94U G110C G127C | -4.48
26 | C12G A29U C49G C82U C115U U133A | -2.06
27 | C12A A37C A46C C88U | -2.57
28 | C11U G71U G93A C104U | -1.26
29 | C11U C115A U125G | -2.51
30 | C11U U112G G127A | -1.34
31 | C12G G45A U78C A84C U106G | -2.62
32 | C12G U87A | -0.0361
33 | C12A G19A A46C C73U G117C | -5.99
34 | C11U C20G A27G C56U | -5.19
35 | C12A A83U | -0.825
36 | C12G G61U G107U | -4.66
37 | C12G U55A C70U G113C | -3.9
38 | C12A G47C C56A C70U A83U C85U G120C | -4.03
39 | C12A C64U C115U G120A C123A | -1.16
40 | C11U G52U A83U G110C C123U | -5.57
41 | C12A C49U | -1.61
42 | C11U C64U | -0.331

Row | Variant | polymerase ribozyme fitness (log ratio)
43 | C12G C40U A43U A83U A105C C124G | -5.47
44 | C11U G45A G51A C76G A91C C114G | -5.71
45 | C12A C49A C70A C97A G120U U130G | -5.85
46 | C12A G58A | -0.259
47 | C11U C79G U92G | -6.09
48 | C11U C73G C124U | 0.969
49 | C12A A29U | -1.98
50 | C11U C62U | -0.515
51 | C12G G120C A121G | -1.12
52 | C11U U32C C70U C98U C124G | -1.48
53 | C12G G47C U96A C104A | -4.59
54 | C12A G48U C53A C101U G113C G120A | -3.38
55 | C12A A41U G77C A83G C85A U125A | -4.14
56 | C12A C15A C72A G110U | -4.88
57 | C12G A108G | -1.2
58 | C11U C28U G120A C124G | 0.0586
59 | C12G G58U A90U A105U | -4.19
60 | C12G G120C | 1.23
61 | C11U G42A C73U C104A U109A U125G | -7.2
62 | C11U G117C A119U | -3.48
63 | C11U U81A | -2.1

Row | Variant | polymerase ribozyme fitness (log ratio)
64 | C12A C56U A95G C115A C124A | 0.771
65 | C12A C34A G45A G71C | -6.58
66 | C12A U78C | -0.581
67 | C11U C13A C89U | -2.3
68 | C12A A46C G60A C82G | -1.19
69 | C12G C98U A119G | 0.523
70 | C11U C72A | 0.246
71 | C12G U14G G107U C114U G120U C123U U133A | -4.14
72 | C12A A41G G63A | -2.29
73 | C11U C40G C64U | -1.72
74 | C12G U55A U87A | 0.0839
75 | C12A C13A U59G G127A | -3.41
76 | C11U C22G C40U | -3.22
77 | C12A G71A | -1.07
78 | C12G C34A C56U | -2.05
79 | C11U A50U G61C C76A A111C | -6.51
80 | C12A G69U | -0.288
81 | C12A G69A | -2.89
82 | C12A G71U A91C | -1.77
83 | C11U G47C C56U U78A A100U C115U U131C | -4.41
84 | C11U U92A | -2.13
